Assay results taken from US12630596B2, “Engineered lysin-human defensin protein” (priority 2018, dated 2026).
Entries after “also recorded” stand apart in the source; their conditions may differ.

Test system: C. difficile R20291 spores
Assay: Treatment efficacy in the mouse model of CDI
Type: in vivo, C57BL/6 mice
Conditions: mice
Description: After 5 days of antibiotic pretreatment, mice were given autoclaved water for 2 days, followed by a single dose of clindamycin (10 mg/kg) intraperitoneally, 1 day before (day-1) challenge with C. difficile R20291 spores by gavage (day 0). The first group (R20291+PB) was infected with 10^6 C. difficile R20291 spores on day 0, and was given PBS (PB) by gavage at 4 h after spore gavage, followed by administration of PB by gavage twice a day from the first day (day 1) to the seventh day (day 7) after spore gavage. The second group (LHD+R20291) was given 400 μg LHD by gavage at 4 h after spore gavage, followed by treatments of 400 μg LHD by gavage twice a day from day 1 to day 7 after spore gavage.
C57BL/6 mice (6-week-old) were purchased from Charles River Laboratories, MA. The mice were housed in groups of 5 animals per cage under the same conditions. All studies followed the Guide for the Care and Use of Laboratory Animals of the National Institutes of Health, and were approved by the Institutes Animal Care and Use Committee (IACUC) at University of South Florida under the animal protocol number 1S00003756. Mouse model of CDI was established as described previously (Zhang, Zhao et al. 2015). The experimental design is illustrated in FIG. 6. Briefly, twenty BL6/C57 female mice were divided into two groups (n=10). Before challenge, mice were pre-treated with antibiotics mixture (ampicillin (200 mg/kg), kanamycin (40 mg/kg), gentamicin (3.5 mg/kg), colistin (4.2 mg/kg), metronidazole (21.5 mg/kg) and vancomycin (4.5 mg/kg)) in drinking water for five days. After that, all mice were given autoclaved water for 2 days, followed by a single dose of clindamycin (10 mg/kg) intraperitoneally 1 day before (day-1) challenge with C. difficile R20291 spores at 10^6 by gavage (day 0). At 4-hr post infection, one group of mice (R20291+LHD) were given a dose of 400 μg LHD in 200 μL of PBS by gavage, and another group of mice (R20291+PB) received sterilized PBS as control. From the first day (day 1) to the seventh day (day 7) after infection, mice were given a dose of 400 μg LHD or PBS by gavage twice a day. Weight changes, diarrhea, and survivals of the mice were recorded during the 7-day monitoring period. Fecal samples from mice were collected at days 0, 1, 3, 5, and 7 post challenge for quantitating C. difficile spores and TcdA/TcdB concentration.
Fecal samples were collected on days 1, 3, 5, 7 post-infection. 50 mg of feces were dissolved with 500 μl sterile MilliQ water for 16 h at 4° C., and then treated with 500 μl of purified ethanol (Sigma-Aldrich) for 60 min at room temperature to kill vegetative cells. Samples were vortexed, serially diluted and plated onto selective medium supplemented with taurocholate (0.1% w/v), Cefoxitin (16 μg/mL), L-cycloserine (250 μg/mL). The plates were incubated anaerobically at 37° C. for 48 h, colonies counted and results expressed as the CFU/gram of feces.
After challenges with C. difficile spores, feces were collected and dissolved in an equal volume (g/ml) of sterile PBS containing protease inhibitor cocktail and the supernatants were collected after centrifugation and stored at −80° C. TcdA/TcdB concentrations in the fecal samples of […] were determined by ELISA. Brieflly, 96-well Costar microplates were coated with 100 μl of anti-TcdA antibody (1 μg/ml) and anti-TcdB antibody (1 μg/ml) overnight in phosphate-buffered saline (PBS) at 4° C. On the next day, each well was blocked with 300 ul of blocking buffer (PBS+5% dry milk) at RT for 2 hrs. Next, standards and samples were added to each well (100 μl) in duplicate and incubated for 90 min at 25° C. After another set of washes, HRP-chicken anti-C. difficile Toxin A or B (1:5,000 dilution in PBS, Gallus Immunotech, Shirley, MA) was added to wells for 30 min at RT. A final set of 3 washes preceded the addition of the TMB Microwell Peroxidase Substrate for 20 minutes at RT in the dark. […]

[1] = 400 μg LHD by gavage twice a day, vs PBS
[2] = R20291 spores, 400 μg LHD by gavage twice a day

B1: LHD: Fusion of phage phiC2 lysin catalytic domain (LCD, 179aa), (GGGGS)3 linker and human alpha-defensin 5; SEQ ID NO:1 (protein)
chain: MKICITVGHSILKSGACTSADGVVNEYQYNKSLAPVLADTFRKEGHKVDVIICPEKQFKTKNEEKSYKIPRVNSGGYDLLIELHLNASNGQGKGSEVLYYSNKGLEYATRICDKLGTVFKNRGAKLDKRLYILNSSKPTAVLIESFFCDNKEDYDKAKKLGHEGIAKLIVEGVLNKNINGGGGSGGGGSGGGGSATCYCRTGRCATRESLSGVCEISGRLYRLCCR
With B1 the “number of C. difficile spores in feces” value [1] was “significantly decreased”, the “toxin-level in feces (TcdA, TcdB)” value [1] was “significantly decreased” and the survival (7-day experimental period, 400 μg LHD by gavage twice a day) was “all mice receiving the treatment of LHD survived”. The diarrhea rate [2] was 60%, the duration of diarrhea [2] was 3 days and the weight loss (R20291 spores, 400 μg LHD by gavage twice a day, vs PBS) was “decreased both weight loss and diarrhea rate significantly; also recorded: significantly less weight”. The weight recovery (from 3 dpi to 7 dpi, vs PBS) was “slower”.
